# Measurements from US20220363770A1 (Amgen, published 2022).
# T1: human PAC1 receptor (human, UniProt P41586 24-468)
# T1 sequence: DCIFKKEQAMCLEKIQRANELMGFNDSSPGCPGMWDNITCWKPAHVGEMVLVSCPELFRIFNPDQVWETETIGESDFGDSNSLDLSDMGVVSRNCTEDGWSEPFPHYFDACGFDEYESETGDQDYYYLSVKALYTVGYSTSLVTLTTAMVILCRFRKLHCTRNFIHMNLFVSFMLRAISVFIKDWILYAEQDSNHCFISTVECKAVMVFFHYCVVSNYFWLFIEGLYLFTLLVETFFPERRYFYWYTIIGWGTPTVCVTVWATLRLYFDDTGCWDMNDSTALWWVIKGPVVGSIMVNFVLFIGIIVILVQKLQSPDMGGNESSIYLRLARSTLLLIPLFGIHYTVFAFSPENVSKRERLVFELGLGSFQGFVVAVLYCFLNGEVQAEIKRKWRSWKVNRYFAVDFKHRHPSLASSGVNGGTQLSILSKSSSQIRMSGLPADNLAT
# Assays:
# [1] = target: human CGRP receptor (human, UniProt Q16602 23-461; O60894 27-148); experiment: cell-based or functional assay
# [2] = target: T1, human PAC1 receptor; experiment: cell-based or functional assay
# Sequence of human CGRP receptor (Q16602 23-461 limits assumed, chain 1 of 2): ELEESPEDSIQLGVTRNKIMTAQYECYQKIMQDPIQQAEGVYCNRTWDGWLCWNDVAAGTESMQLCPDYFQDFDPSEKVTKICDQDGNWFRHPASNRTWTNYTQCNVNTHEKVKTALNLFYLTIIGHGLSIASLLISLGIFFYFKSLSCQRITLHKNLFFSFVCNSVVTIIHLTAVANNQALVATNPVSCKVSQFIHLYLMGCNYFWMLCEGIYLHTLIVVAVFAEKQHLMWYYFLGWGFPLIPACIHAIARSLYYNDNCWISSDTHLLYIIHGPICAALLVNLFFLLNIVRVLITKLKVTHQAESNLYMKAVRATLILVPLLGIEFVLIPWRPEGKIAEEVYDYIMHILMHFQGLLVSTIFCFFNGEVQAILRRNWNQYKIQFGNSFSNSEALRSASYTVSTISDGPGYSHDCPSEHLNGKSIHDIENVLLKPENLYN
# Sequence of human CGRP receptor (O60894 27-148 limits assumed, chain 2 of 2): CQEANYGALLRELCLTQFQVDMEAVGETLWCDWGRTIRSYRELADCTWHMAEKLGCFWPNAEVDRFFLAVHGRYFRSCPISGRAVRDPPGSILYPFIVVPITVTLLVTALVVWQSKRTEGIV
Fold-improvement over 4E4 Ab [1] [fold],IC50 [1] [nM],Fold-improvement over 29G4v22 Ab [2] [fold],IC50 [2] [nM],Binder
0.4,1.41,9.4,0.69,"iPS:454895 (bispecific antibody, human IgG1, kappa, lambda, N297G) light 1: QSVLTQPPSVSAAPGQKVTISCSGSSSNIGNNYVSWYQQLPGTAPKLLIYDNNKRPSGIPDRFSGSKSGTSTTLGITGLQTGDEADYYCGTWDSRLSAVVFGGGTKLTVLGQPKAAPSVTLFPPSSEELQANKATLVCLISDFYPGAVTVAWKADSSPVKAGVETTTPSKQSNNKYAAKSYLSLTPEQWKSHRSYSCQVTHEGSTVEKTVAPTECS heavy 1: QVQLVESGGGVVQPGRSLRLSCAASGFTFSSFGMHWVRQAPGKGLEWVAVISFDGSIKYSVDSVKGRFTISRDNSKNTLFLQMNSLRAEDTAVYYCARDRLNYYRSFGYYGYHYYGMAVWGQGTTVTVSSASTKGPSVFPLAPSSKSTSGGTAALGCLVKDYFPEPVTVSWNSGALTSGVHTFPAVLQSSGLYSLESVVTVPSSSLGTQTYICNVNHKPSNTKVDKKVEPKSCDKTHTCPPCPAPELLGGPSVFLFPPKPKDTLMISRTPEVTCVVVDVSHEDPEVKFNWYVDGVEVHNAKTKPCEEQYGSTYRCVSVLTVLHQDWLNGKEYKCKVSNKALPAPIEKTISKAKGQPREPQVYTLPPSRKKMTKNQVSLTCLVKGFYPSDIAVEWESNGQPENNYKTTPPVLKSDGSFFLYSKLTVDKSRWQQGNVFSCSVMHEALHNHYTQKSLSLSPGK light 2: EIVLTQSPATLSLSPGERATLSCRASQSVGRSLHWYQQKPGQAPRLLIKYASQSLSGIPARFSGSGSGTDFTLTISSLEPEDFAVYYCHQSSRLPFTFGPGTKVDIKRTVAAPSVFIFPPSDEQLKSGTASVVCLLNNFYPREAKVQWKVDNALQSGNSQESVTEQDSKDSTYSLESTLTLSKADYEKHKVYACEVTHQGLSSPVTKSFNRGEC heavy 2: not shown"
0.5,1.14,6.2,1.04,"iPS:454897 (bispecific antibody, human IgG1, kappa, lambda, N297G) light 1: QSVLTQPPSVSAAPGQKVTISCSGSSSNIGNNYVSWYQQLPGTAPKLLIYDNNKRPSGIPDRFSGSKSGTSTTLGITGLQTGDEADYYCGTWDSRLSAVVFGGGTKLTVLGQPKAAPSVTLFPPSSEELQANKATLVCLISDFYPGAVTVAWKADSSPVKAGVETTTPSKQSNNKYAAKSYLSLTPEQWKSHRSYSCQVTHEGSTVEKTVAPTECS heavy 1: QVQLVESGGGVVQPGRSLRLSCAASGFTFSSFGMHWVRQAPGKGLEWVAVISFDGSIKYSVDSVKGRFTISRDNSKNTLFLQMNSLRAEDTAVYYCARDRLNYYRSFGYYGYHYYGMAVWGQGTTVTVSSASTKGPSVFPLAPSSKSTSGGTAALGCLVKDYFPEPVTVSWNSGALTSGVHTFPAVLQSSGLYSLESVVTVPSSSLGTQTYICNVNHKPSNTKVDKKVEPKSCDKTHTCPPCPAPELLGGPSVFLFPPKPKDTLMISRTPEVTCVVVDVSHEDPEVKFNWYVDGVEVHNAKTKPCEEQYGSTYRCVSVLTVLHQDWLNGKEYKCKVSNKALPAPIEKTISKAKGQPREPQVYTLPPSRKKMTKNQVSLTCLVKGFYPSDIAVEWESNGQPENNYKTTPPVLKSDGSFFLYSKLTVDKSRWQQGNVFSCSVMHEALHNHYTQKSLSLSPGK light 2: EIVLTQSPATLSLSPGERATLSCRASKSVGRSLHWYQQKPGQAPRLLIKYASQSLSGIPARFSGSGSGTDFTLTISSLEPEDFAVYYCHQSSRLPFTFGPGTKVDIKRTVAAPSVFIFPPSDEQLKSGTASVVCLLNNFYPREAKVQWKVDNALQSGNSQESVTEQDSKDSTYSLESTLTLSKADYEKHKVYACEVTHQGLSSPVTKSFNRGEC heavy 2: not shown"
